This passage reports stoichiometry N, binding result and EC50 results from paper PMC11685497 (Nature Communications, 2024).

The stoichiometry N is the number of molecules, sites or subunits per partner or assembly. What is called EC50 is the concentration at which the effect is half-maximal.

For experiment [1], the target named is wild-type soluble CD73 (ecto-5'-nucleotidase), recombinant (human). Description: cryo-EM structure.
Experiment [2] has as its target T1, wild-type soluble CD73 (ecto-5'-nucleotidase), recombinant (Homo sapiens).
T1 chain: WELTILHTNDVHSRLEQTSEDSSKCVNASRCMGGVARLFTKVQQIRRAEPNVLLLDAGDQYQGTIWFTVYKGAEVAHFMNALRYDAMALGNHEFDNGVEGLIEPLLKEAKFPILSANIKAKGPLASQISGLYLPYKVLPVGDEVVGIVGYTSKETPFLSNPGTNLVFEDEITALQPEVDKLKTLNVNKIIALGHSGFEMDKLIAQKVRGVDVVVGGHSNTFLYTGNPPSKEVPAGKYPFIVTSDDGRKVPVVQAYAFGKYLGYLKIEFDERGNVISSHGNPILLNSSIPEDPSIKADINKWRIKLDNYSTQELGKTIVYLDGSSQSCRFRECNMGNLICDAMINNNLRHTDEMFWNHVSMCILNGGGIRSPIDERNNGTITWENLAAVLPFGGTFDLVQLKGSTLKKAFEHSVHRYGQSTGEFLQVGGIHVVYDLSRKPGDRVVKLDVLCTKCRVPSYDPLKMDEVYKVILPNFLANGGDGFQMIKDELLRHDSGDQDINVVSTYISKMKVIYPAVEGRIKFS
The experiment in a line: HDX-MS.

The target of experiment [3] is T1, wild-type soluble CD73 …. Description: negative-stain EM.
In experiment [4] the target is human CD73, membrane-bound, on CHO-K1 cells (CHO-K1-huCD73-3F4) (Homo sapiens, UniProt P21589). Description: flow cytometry on cells.

In the case of “wild-type soluble CD73 (ecto-5'-nucleotidase), recombinant (enzyme)”, the stoichiometry N in experiment [1] was found to be 2.

B1: HB0039 Fab (Fab, V domains shown)
VH: QVQLVQSGAEVKKPGASVKLSCKASGYTFTSYWIHWVRQAPGQGLEWIGMIHPNSGSTYYNEKFKGRATLTVDKSTSTAYMELSSLRSEDTAVYYCARYYGSDYEWYFDVWGQGTTV
VL: IQMTQSPSSMSASVGDRVTITCKASQNVRTAVVWYQQKPGKAPKALIYLASNRHTGVPDRFSGSGSGTDFTLTISSLQPEDFATYFCLQHWNYPYTFGQGTKL
Regarding B1, the binding result in experiment [2] was “binds”.

B2: HB0039 (humanized anti-human CD73 monoclonal IgG1, L234A/L235A) (antibody, V domains shown)
VH: QVQLVQSGAEVKKPGASVKLSCKASGYTFTSYWIHWVRQAPGQGLEWIGMIHPNSGSTYYNEKFKGRATLTVDKSTSTAYMELSSLRSEDTAVYYCARYYGSDYEWYFDVWGQGTTV
VL: IQMTQSPSSMSASVGDRVTITCKASQNVRTAVVWYQQKPGKAPKALIYLASNRHTGVPDRFSGSGSGTDFTLTISSLQPEDFATYFCLQHWNYPYTFGQGTKL
Take B2: the binding result in experiment [3] is on record as “binds”. In experiment [4], the 50% effective concentration (EC50) stood at 0.24 nM.

B3: HB0038 (humanized anti-human CD73 monoclonal IgG1, L234A/L235A) (antibody, V domains shown)
VH: QVQLVESGGGLVKPGGSLRLSCAASGFTFSKYAMSWIRQAPGKGLEWVAEISSGGGYINYADSVKGRFTISRDNAKNSLYLQMNSLRAEDTAVYYCARAIYYYGSSYNYYAMDYWGQGTTVTVS
VL: DIQMTQSPSSLSASVGDRVTITCRASQDVGTAEAWYQQKPGKAPKLLIYWASTRHTGVPSRFSGSGSGTDFTLTISSLQPEDFATYYCQQYSSYPLTFGQGTKL
As to B3, the binding result in experiment [2] is “binds”. Also, the half-maximal effective concentration (EC50) in experiment [4] amounted to 11.8 nM.

B4: HB0038 Fab (Fab, V domains shown)
VH: QVQLVESGGGLVKPGGSLRLSCAASGFTFSKYAMSWIRQAPGKGLEWVAEISSGGGYINYADSVKGRFTISRDNAKNSLYLQMNSLRAEDTAVYYCARAIYYYGSSYNYYAMDYWGQGTTVTVS
VL: DIQMTQSPSSLSASVGDRVTITCRASQDVGTAEAWYQQKPGKAPKLLIYWASTRHTGVPSRFSGSGSGTDFTLTISSLQPEDFATYYCQQYSSYPLTFGQGTKL
For B4, the binding result in experiment [3] is “binds”.
